Experiment [1] concerns the target PSGL-1 (P-Selectin Glycoprotein Ligand-1) (human) (UniProt Q14242). As to the kind of experiment: FACS, PE-labeled KPL-1 on ML2 cells.
Experiment [2] shares this target. As to the kind of experiment: FACS competition on ML2 cells, 200 ng KPL-1, competitor IgG Y1-PE.

Median (Geo mean), Median (Geo mean) of IgG Y1-PE binding and Percent Inhibition data for one substance are collected here from US20040208877A1.

Chain of UniProt Q14242 (Q14242 42-412): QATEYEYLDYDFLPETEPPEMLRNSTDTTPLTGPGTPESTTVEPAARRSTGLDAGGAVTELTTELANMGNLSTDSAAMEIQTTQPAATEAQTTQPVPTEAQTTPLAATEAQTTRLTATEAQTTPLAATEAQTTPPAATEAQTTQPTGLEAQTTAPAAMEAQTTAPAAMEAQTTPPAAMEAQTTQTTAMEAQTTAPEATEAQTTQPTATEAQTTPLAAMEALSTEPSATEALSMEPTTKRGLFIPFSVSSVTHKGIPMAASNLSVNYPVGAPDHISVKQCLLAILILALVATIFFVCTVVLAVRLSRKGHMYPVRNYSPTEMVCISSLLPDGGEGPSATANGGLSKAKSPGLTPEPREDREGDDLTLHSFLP

In turn, “KPL-1 (commercially available murine monoclonal antibody against PSGL1)” gave a Median (Geo mean) in experiment [1] of 700 geo mean. Further, in experiment [2], the Median (Geo mean) of IgG Y1-PE binding amounted to 2 geo mean and the Percent Inhibition worked out at 100%.
